# How the values were obtained:
# HeLa Kyoto [1] = experiment: solubility change mitosis vs G1/S (difference of NP-40 vs SDS log2 ratios) (log2 ratio difference); higher = more soluble in mitosis
# HeLa Kyoto [2] = experiment: thermal stability score vs G1/S (z-score of summed log2 fold changes over temperatures); higher = more thermally stable than in G1/S
# HeLa Kyoto [3] = experiment: melting temperature (median over replicates), in situ; higher = more thermally stable
# HeLa Kyoto [4] = experiment: solubility in G1/S (NP-40 vs SDS abundance) (log2 ratio); higher = more soluble; conditions: cell cycle stage: G1/S
# [5] = cell cycle stage: early G1 (4.5 h after nocodazole release)
# 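For melting temperature (median over replicates), in situ in this document: HeLa Kyoto cells synchronized by double thymidine or nocodazole block, proteins quantified by TMT10plex mass spectrometry, three independent biological replicates.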
# 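For solubility change mitosis vs G1/S (difference of NP-40 vs SDS log2 ratios) in this document: synchronized HeLa Kyoto cells (double thymidine block for G1/S, nocodazole release for mitosis), protein amounts in NP-40 versus SDS lysates quantified by mass spectrometry, three biological replicates.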
# 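For solubility in G1/S (NP-40 vs SDS abundance) in this document: HeLa Kyoto cells arrested at G1/S by double thymidine block, proteins quantified by TMT10plex mass spectrometry in mild NP-40 versus SDS extracts, three biological replicates.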
# 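For thermal stability score vs G1/S (z-score of summed log2 fold changes over temperatures) in this document: synchronized HeLa Kyoto cells, proteins quantified by TMT10plex mass spectrometry, three biological replicates, mitosis taken 0.5 h after nocodazole release, G1/S directly after double thymidine block.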
Substance,solubility change mitosis (log2) (HeLa Kyoto [1]),thermal stability score (HeLa Kyoto [2]; [5]),thermal stability score (HeLa Kyoto [2]; cell cycle stage: mitosis),melting temperature (HeLa Kyoto [3]; cell cycle stage: G1/S) [°C],melting temperature (HeLa Kyoto [3]; cell cycle stage: mitosis) [°C],solubility in G1/S (log2) (HeLa Kyoto [4])
MAELSEEALLSVLPTIRVPKAGDRVHKDECAFSFDTPESEGGLYICMNTFLGFGKQYVERHFNKTGQRVYLHLRRTRRPKEEDPATGTGDPPRKKPTRLAIGVEGGFDLSEEKFELDEDVKIVILPDYLEIARDGLGGLPDIVRDRVTSAVEALLSADSASRKQEVQAWDGEVRQVSKHAFSLKQLDNPARIPPCGWKCSKCDMRENLWLNLTDGSILCGRRYFDGSGGNNHAVEHYRETGYPLAVKLGTITPDGADVYSYDEDDMVLDPSLAEHLSHFGIDMLKMQKTDKTMTELEIDMNQRIGEWELIQESGVPLKPLFGPGYTGIRNLGNSCYLNSVVQVLFSIPDFQRKYVDKLEKIFQNAPTDPTQDFSTQVAKLGHGLLSGEYSKPVPESGDGERVPEQKEVQDGIAPRMFKALIGKGHPEFSTNRQQDAQEFFLHLINMVERNCRSSENPNEVFRFLVEEKIKCLATEKVKYTQRVDYIMQLPVPMDAALNKEELLEYEEKKRQAEEEKMALPELVRAQVPFSSCLEAYGAPEQVDDFWSTALQAKSVAVKTTRFASFPDYLVIQIKKFTFGLDWVPKKLDVSIEMPEELDISQLRGTGLQPGEEELPDIAPPLVTPDEPKGSLGFYGNEDEDSFCSPHFSSPTSPMLDESVIIQLVEMGFPMDACRKAVYYTGNSGAEAAMNWVMSHMDDPDFANPLILPGSSGPGSTSAAADPPPEDCVTTIVSMGFSRDQALKALRATNNSLERAVDWIFSHIDDLDAEAAMDISEGRSAADSISESVPVGPKVRDGPGKYQLFAFISHMGTSTMCGHYVCHIKKEGRWVIYNDQKVCASEKPPKDLGYIYFYQRVAS [USP5],-0.139,0.203,0.183,52,51.9,0.218
RIF1,0.0253,2.16,5.52,47.3,49.6,-0.28
MKVTVCFGRTRVVVPCGDGHMKVFSLIQQAVTRYRKAIAKDPNYWIQVHRLEHGDGGILDLDDILCDVADDKDRLVAVFDEQDPHHGGDGTSASSTGTQSPEIFGSELGTNNVSAFQPYQATSEIEVTPSVLRANMPLHVRRSSDPALIGLSTSVSDSNFSSEEPSRKNPTRWSTTAGFLKQNTAGSPKTCDRKKDENYRSLPRDTSNWSNQFQRDNARSSLSASHPMVGKWLEKQEQDEDGTEEDNSRVEPVGHADTGLEHIPNFSLDDMVKLVEVPNDGGPLGIHVVPFSARGGRTLGLLVKRLEKGGKAEHENLFRENDCIVRINDGDLRNRRFEQAQHMFRQAMRTPIIWFHVVPAANKEQYEQLSQSEKNNYYSSRFSPDSQYIDNRSVNSAGLHTVQRAPRLNHPPEQIDSHSRLPHSAHPSGKPPSAPASAPQNVFSTTVSSGYNTKKIGKRLNIQLKKGTEGLGFSITSRDVTIGGSAPIYVKNILPRGAAIQDGRLKAGDRLIEVNGVDLVGKSQEEVVSLLRSTKMEGTVSLLVFRQEDAFHPRELNAEPSQMQIPKETKAEDEDIVLTPDGTREFLTFEVPLNDSGSAGLGVSVKGNRSKENHADLGIFVKSIINGGAASKDGRLRVNDQLIAVNGESLLGKTNQDAMETLRRSMSTEGNKRGMIQLIVARRISKCNELKSPGSPPGPELPIETALDDRERRISHSLYSGIEGLDESPSRNAALSRIMGESGKYQLSPTVNMPQDDTVIIEDDRLPVLPPHLSDQSSSSSHDDVGFVTADAGTWAKAAISDSADCSLSPDVDPVLAFQREGFGRQSMSEKRTKQFSDASQLDFVKTRKSKSMDLGIADETKLNTVDDQKAGSPSRDVGPSLGLKKSSSLESLQTAVAEVTLNGDIPFHRPRPRIIRGRGCNESFRAAIDKSYDKPAVDDDDEGMETLEEDTEESSRSGRESVSTASDQPSHSLERQMNGNQEKGDKTDRKKDKTGKEKKKDRDKEKDKMKAKKGMLKGLGDMFRFGKHRKDDKIEKTGKIKIQESFTSEEERIRMKQEQERIQAKTREFRERQARERDYAEIQDFHRTFGCDDELMYGGVSSYEGSMALNARPQSPREGHMMDALYAQVKKPRNSKPSPVDSNRSTPSNHDRIQRLRQEFQQAKQDEDVEDRRRTYSFEQPWPNARPATQSGRHSVSVEVQMQRQRQEERESSQQAQRQYSSLPRQSRKNASSVSQDSWEQNYSPGEGFQSAKENPRYSSYQGSRNGYLGGHGFNARVMLETQELLRQEQRRKEQQMKKQPPSEGPSNYDSYKKVQDPSYAPPKGPFRQDVPPSPSQVARLNRLQTPEKGRPFYS [PARD3],0.111,0.772,2.38,47.7,49.3,-0.137
MGKSESQMDITDINTPKPKKKQRWTPLEISLSVLVLLLTIIAVTMIALYATYDDGICKSSDCIKSAARLIQNMDATTEPCTDFFKYACGGWLKRNVIPETSSRYGNFDILRDELEVVLKDVLQEPKTEDIVAVQKAKALYRSCINESAIDSRGGEPLLKLLPDIYGWPVATENWEQKYGASWTAEKAIAQLNSKYGKKVLINLFVGTDDKNSVNHVIHIDQPRLGLPSRDYYECTGIYKEACTAYVDFMISVARLIRQEERLPIDENQLALEMNKVMELEKEIANATAKPEDRNDPMLLYNKMTLAQIQNNFSLEINGKPFSWLNFTNEIMSTVNISITNEEDVVVYAPEYLTKLKPILTKYSARDLQNLMSWRFIMDLVSSLSRTYKESRNAFRKALYGTTSETATWRRCANYVNGNMENAVGRLYVEAAFAGESKHVVEDLIAQIREVFIQTLDDLTWMDAETKKRAEEKALAIKERIGYPDDIVSNDNKLNNEYLELNYKEDEYFENIIQNLKFSQSKQLKKLREKVDKDEWISGAAVVNAFYSSGRNQIVFPAGILQPPFFSAQQSNSLNYGGIGMVIGHEITHGFDDNGRNFNKDGDLVDWWTQQSASNFKEQSQCMVYQYGNFSWDLAGGQHLNGINTLGENIADNGGLGQAYRAYQNYIKKNGEEKLLPGLDLNHKQLFFLNFAQVWCGTYRPEYAVNSIKTDVHSPGNFRIIGTLQNSAEFSEAFHCRKNSYMNPEKKCRVW [MME],-0.0403,-0.835,-0.832,53,55.9,-0.0691
MASGAYNPYIEIIEQPRQRGMRFRYKCEGRSAGSIPGEHSTDNNRTYPSIQIMNYYGKGKVRITLVTKNDPYKPHPHDLVGKDCRDGYYEAEFGQERRPLFFQNLGIRCVKKKEVKEAIITRIKAGINPFNVPEKQLNDIEDCDLNVVRLCFQVFLPDEHGNLTTALPPVVSNPIYDNRAPNTAELRICRVNKNCGSVRGGDEIFLLCDKVQKDDIEVRFVLNDWEAKGIFSQADVHRQVAIVFKTPPYCKAITEPVTVKMQLRRPSDQEVSESMDFRYLPDEKDTYGNKAKKQKTTLLFQKLCQDHVETGFRHVDQDGLELLTSGDPPTLASQSAGITVNFPERPRPGLLGSIGEGRYFKKEPNLFSHDAVVREMPTGVSSQAESYYPSPGPISSGLSHHASMAPLPSSSWSSVAHPTPRSGNTNPLSSFSTRTLPSNSQGIPPFLRIPVGNDLNASNACIYNNADDIVGMEASSMPSADLYGISDPNMLSNCSVNMMTTSSDSMGETDNPRLLSMNLENPSCNSVLDPRDLRQLHQMSSSSMSAGANSNTTVFVSQSDAFEGSDFSCADNSMINESGPSNSTNPNSHGFVQDSQYSGIGSMQNEQLSDSFPYEFFQV [REL],-0.0913,-0.962,-0.219,49.5,50.5,-0.0913
MATATEQWVLVEMVQALYEAPAYHLILEGILILWIIRLLFSKTYKLQERSDLTVKEKEELIEEWQPEPLVPPVPKDHPALNYNIVSGPPSHKTVVNGKECINFASFNFLGLLDNPRVKAAALASLKKYGVGTCGPRGFYGTFDVHLDLEDRLAKFMKTEEAIIYSYGFATIASAIPAYSKRGDIVFVDRAACFAIQKGLQASRSDIKLFKHNDMADLERLLKEQEIEDQKNPRKARVTRRFIVVEGLYMNTGTICPLPELVKLKYKYKARIFLEESLSFGVLGEHGRGVTEHYGINIDDIDLISANMENALASIGGFCCGRSFVIDHQRLSGQGYCFSASLPPLLAAAAIEALNIMEENPGIFAVLKEKCGQIHKALQGISGLKVVGESLSPAFHLQLEESTGSREQDVRLLQEIVDQCMNRSIALTQARYLEKEEKCLPPPSIRVVVTVEQTEEELERAASTIKEVAQAVLL [SPTLC1],-0.06,0.272,-0.0699,51.5,52,-0.0163
